Laboratory results taken from patent US20150118212A1.

T1: human plasminogen, P00747
T1 chain: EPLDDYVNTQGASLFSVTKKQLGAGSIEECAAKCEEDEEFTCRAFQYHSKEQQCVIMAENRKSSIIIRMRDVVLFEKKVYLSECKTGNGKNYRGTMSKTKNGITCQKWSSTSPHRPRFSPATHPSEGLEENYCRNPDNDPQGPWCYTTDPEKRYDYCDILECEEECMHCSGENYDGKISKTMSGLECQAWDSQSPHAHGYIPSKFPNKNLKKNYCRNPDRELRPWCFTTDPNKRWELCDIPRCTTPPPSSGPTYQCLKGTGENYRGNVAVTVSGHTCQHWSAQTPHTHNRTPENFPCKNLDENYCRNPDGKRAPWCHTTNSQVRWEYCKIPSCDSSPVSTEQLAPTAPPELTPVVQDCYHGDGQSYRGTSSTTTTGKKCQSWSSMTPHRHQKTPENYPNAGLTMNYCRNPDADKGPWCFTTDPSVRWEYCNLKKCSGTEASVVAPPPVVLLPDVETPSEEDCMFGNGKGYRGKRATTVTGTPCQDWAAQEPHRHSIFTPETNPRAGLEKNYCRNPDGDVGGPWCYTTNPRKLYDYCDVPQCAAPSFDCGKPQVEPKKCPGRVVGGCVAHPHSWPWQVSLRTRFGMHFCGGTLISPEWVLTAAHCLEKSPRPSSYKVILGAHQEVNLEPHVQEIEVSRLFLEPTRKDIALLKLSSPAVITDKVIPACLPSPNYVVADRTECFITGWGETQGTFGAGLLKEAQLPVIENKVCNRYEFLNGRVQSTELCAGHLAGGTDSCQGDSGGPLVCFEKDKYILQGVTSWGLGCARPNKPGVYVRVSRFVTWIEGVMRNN

B1: SAK 1CCT (protein)
chain: SSSFDKGKYKKGDDASYFEPTGPYLMVNVTGVDGKGNELLSPHYVEFPIKPGTTLTKEKIEYYVEWALDATAYKEFRVVELDPSAKIEVTYYDKNKKKEETKSFPITEKGFVVPDLSEHIKNPGFNLITKVVIEKKAC
B2: SAK 2CCT (protein)
chain: SSSFDKGKYKKGDDASYFEPTGPYLMVNVTGVDGKGNELLSPHYVEFPIKPGTTLTKEKIEYYVEWALDATAYKEFRVVELDPSAKIEVTYYDKNKKKEETKSFPITEKGFVVPDLSEHIKNPGFNLITKVVIEKKCC
B3: SAK (Recombinant) (protein)
chain: SSSFDKGKYKKGDDASYFEPTGPYLMVNVTGVDGKGNELLSPHYVEFPIKPGTTLTKEKIEYYVEWALDATAYKEFRVVELDPSAKIEVTYYDKNKKKEETKSFPITEKGFVVPDLSEHIKNPGFNLITKVVIEKK
B4: SAK S3C (protein)
chain: SSCFDKGKYKKGDDASYFEPTGPYLMVNVTGVDGKGNELLSPHYVEFPIKPGTTLTKEKIEYYVEWALDATAYKEFRVVELDPSAKIEVTYYDKNKKKEETKSFPITEKGFVVPDLSEHIKNPGFNLITKVVIEKK
B5: SAK 1CNT (protein)
chain: MCSSSFDKGKYKKGDDASYFEPTGPYLMVNVTGVDGKGNELLSPHYVEFPIKPGTTLTKEKIEYYVEWALDATAYKEFRVVELDPSAKIEVTYYDKNKKKEETKSFPITEKGFVVPDLSEHIKNPGFNLITKVVIEKK
B6: SAK 2CNT (protein)
chain: MCCSSSFDKGKYKKGDDASYFEPTGPYLMVNVTGVDGKGNELLSPHYVEFPIKPGTTLTKEKIEYYVEWALDATAYKEFRVVELDPSAKIEVTYYDKNKKKEETKSFPITEKGFVVPDLSEHIKNPGFNLITKVVIEKK

Target: T1, human plasminogen, P00747

In order of falling “Specific Activity (U/mg)” value:
1. B3  66 ± 3.5 U/mg
2. B2  65 ± 3.8 U/mg
3. B1  64 ± 4.5 U/mg
4. B4  60 ± 4.1 U/mg
5. B5  40 ± 4.3 U/mg

With B6 the “Specific Activity (U/mg)” value was 57 ± 3 8 U/mg.
